# Laboratory results taken from patent US20130096072A1 (Genentech, published 2013).
# Bridges are numbered along the chain shown (N, C = ends). Where no end group is shown, it is not given here. [ ]: non-standard residue; d: D form. Hyp = O=C(O)[C@@H]1C[C@@H](O)CN1
# B1: IVdG.14 peptide (peptide)
# peptide: IV[dD]GYPWWMDV-NH2
# notes: Printed as I V d G Y P W W M D V, d = D-aspartic acid
# B2: ZAP.13 phage clone (ZAPtide Library) (peptide)
# chain: IVGGYPWWITG
# modifications: not fully specified
# notes: not shown: M13 gene VIII coat protein fused after the peptide
# B3: ZAP.03 phage clone of Table 4B (ZAPtide Library, SEQ ID NO:129) (peptide)
# chain: IVGGDFYSSYW
# modifications: not fully specified
# notes: as for B2
# B4: ZAP.30 phage clone (ZAPtide Library) (peptide)
# chain: IVGGYPAWMEY
# modifications: not fully specified
# notes: as for B2
# B5: ZAP.52 phage clone (ZAPtide Library) (peptide)
# chain: IVGGLWEMWVT
# modifications: not fully specified
# notes: as for B2
# B6: ZAP.65 phage clone (ZAPtide Library) (peptide)
# chain: IVGGEPAYWYW
# modifications: not fully specified; also: fused before M13 gene VIII coat protein, linker not given here
# notes: as for B2
# B7: ZAP.54 phage clone (ZAPtide Library) (peptide)
# chain: IVGGLDVEYEL
# modifications: not fully specified
# notes: as for B2
# B8: ZAP.24 phage clone (ZAPtide Library) (peptide)
# chain: IVGGCKRSYWE
# modifications: not fully specified
# notes: as for B2
# B9: ZAP.15 phage clone (ZAPtide Library) (peptide)
# chain: IVGGDPWWFVS
# modifications: not fully specified
# notes: as for B2
# B10: ZAP.50 phage clone (ZAPtide Library) (peptide)
# chain: IVGGDYYWVVQ
# modifications: not fully specified
# notes: as for B2
# B11: ZAP.18 phage clone (ZAPtide Library) (peptide)
# chain: IVGGFVFWCDQ
# modifications: not fully specified
# notes: as for B2
# B12: ZAP.11 phage clone (ZAPtide Library) (peptide)
# chain: IVGGHPMSPFS
# modifications: not fully specified
# notes: as for B2
# B13: ZAP.53 phage clone (ZAPtide Library) (peptide)
# chain: IVGGYPWWVDV
# modifications: not fully specified
# notes: as for B2
# B14: ZAP.25 phage clone (ZAPtide Library) (peptide)
# chain: IVGGNKIWSVS
# modifications: not fully specified
# notes: as for B2
# B15: ZAP.32 phage clone (ZAPtide Library) (peptide)
# chain: IVGGEPVWYVW
# modifications: not fully specified
# notes: as for B2
# B16: ZAP.29 phage clone (ZAPtide Library) (peptide)
# chain: IVGGTRCNDWI
# modifications: not fully specified
# notes: as for B2
# B17: ZAP.04 phage clone (ZAPtide Library) (peptide)
# chain: IVGGSDFPWWV
# modifications: not fully specified
# notes: as for B2
# B18: ZAP.63 phage clone (ZAPtide Library) (peptide)
# chain: IVGGMRLCGYI
# modifications: not fully specified; also: fused before M13 gene VIII coat protein, linker not given here
# notes: as for B2
# B19: ZAP.67 phage clone (ZAPtide Library) (peptide)
# chain: IVGGPHKAFLL
# modifications: not fully specified; also: fused before M13 gene VIII coat protein, linker not given here
# notes: as for B2
# B20: ZAP.91 phage clone (ZAPtide Library) (peptide)
# chain: IVGGYPVYFLN
# modifications: not fully specified; also: fused before M13 gene VIII coat protein, linker not given here
# notes: as for B2
# B21: ZAP.45 phage clone (ZAPtide Library) (peptide)
# chain: IVGGKWQRKRV
# modifications: not fully specified
# notes: as for B2
# B22: ZAP.43 phage clone (ZAPtide Library) (peptide)
# chain: IVGGDPVYVLY
# modifications: not fully specified
# notes: as for B2
# B23: ZAP.06 phage clone (ZAPtide Library) (peptide)
# chain: IVGGDGMPWWI
# modifications: not fully specified
# notes: as for B2
# B24: IVGG.14 phage clone (ZAPtide Library) (peptide)
# chain: IVGGYPWWMDV
# modifications: not fully specified
# notes: as for B2
# B25: ZAP.39 phage clone (ZAPtide Library) (peptide)
# chain: IVGGSACLIAM
# modifications: not fully specified
# notes: as for B2
# B26: ZAP.09 phage clone (ZAPtide Library) (peptide)
# chain: H-IVGGDYWWVPI
# modifications: not fully specified
# notes: as for B2
# B27: ZAP.01a phage clone (ZAPtide Library) (peptide)
# chain: IVGGVRCWVSN
# modifications: not fully specified
# notes: Not the 15-mer ZAP.01; not shown: M13 gene VIII coat protein fused after the peptide
# B28: ZAP.03S peptide (peptide)
# peptide: IIGGSPYWMDREESI-NH2
# notes: ZAP.03 with both cysteines changed to serine; no disulfide
# Tested on: IVGG.147A peptide
# Experiment: not given
row,Molecule,"initial rate of hydrolysis (Vi) of Ile-Pro-Arg-pNA, 100 nM enzyme, 2 mM substrate"
1,prethrombin-2,the initial rate of substrate hydrolysis (Vi) for both prethrombin-2 and Protein C zymogens significantly increased upon titration of IVGG.147A into the reaction
2,Protein C (zymogen),the initial rate of substrate hydrolysis (Vi) for both prethrombin-2 and Protein C zymogens significantly increased upon titration of IVGG.147A into the reaction

# Target: T1, scHGF β-chain (zymogen-like HGF β, residues Asn479 to Ser728, R494E, C-terminal His-tag) (human, UniProt P14210 479-728)
# Experiment: cell-based or functional assay
# T1 sequence (P14210 479-728 R494E): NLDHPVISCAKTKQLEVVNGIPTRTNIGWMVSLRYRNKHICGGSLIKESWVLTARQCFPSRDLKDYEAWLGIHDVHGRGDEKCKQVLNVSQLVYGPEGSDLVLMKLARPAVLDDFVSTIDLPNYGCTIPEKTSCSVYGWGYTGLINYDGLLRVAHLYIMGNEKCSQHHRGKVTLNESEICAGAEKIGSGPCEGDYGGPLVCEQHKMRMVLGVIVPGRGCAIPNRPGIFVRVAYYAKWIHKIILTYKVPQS
row,Molecule,"activity (alanine scanning of the YPWWM turn motif), loss against IVGG.14"
1,IVGGYAWWMDV-NH2 [IVGG.14 P6A variant],25 fold
2,IVGGYPWAMDV-NH2 [IVGG.14 W8A variant],10 fold

# Target: scHGF (non-cleavable form of full-length pro-HGF with a mutated cleavage site) (human, UniProt P14210 32-728)
# Experiment: cell-based or functional assay
# Sequence of scHGF (non-cleavable form of full-length pro-HGF with a mutated cleavage site) (P14210 32-728 limits assumed, change not shown): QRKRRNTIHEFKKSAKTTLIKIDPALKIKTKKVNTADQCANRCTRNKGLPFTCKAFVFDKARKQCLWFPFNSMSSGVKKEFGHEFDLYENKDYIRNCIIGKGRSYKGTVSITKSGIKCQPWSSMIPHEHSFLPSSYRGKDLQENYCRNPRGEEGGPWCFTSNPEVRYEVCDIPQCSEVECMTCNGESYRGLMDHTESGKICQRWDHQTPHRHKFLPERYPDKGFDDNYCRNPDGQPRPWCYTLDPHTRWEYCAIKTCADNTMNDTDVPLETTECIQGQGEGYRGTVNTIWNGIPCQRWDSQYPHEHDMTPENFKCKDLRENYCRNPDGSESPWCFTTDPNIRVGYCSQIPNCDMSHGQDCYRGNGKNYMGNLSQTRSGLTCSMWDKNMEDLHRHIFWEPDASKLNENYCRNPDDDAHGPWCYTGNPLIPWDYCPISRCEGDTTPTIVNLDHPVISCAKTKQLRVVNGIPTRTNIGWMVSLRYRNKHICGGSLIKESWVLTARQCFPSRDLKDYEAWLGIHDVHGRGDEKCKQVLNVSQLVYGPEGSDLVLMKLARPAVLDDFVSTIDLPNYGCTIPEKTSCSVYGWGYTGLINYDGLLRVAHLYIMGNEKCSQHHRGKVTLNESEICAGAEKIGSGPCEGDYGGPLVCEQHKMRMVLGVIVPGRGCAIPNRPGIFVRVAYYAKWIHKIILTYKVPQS
Molecule,"EC50, BxPC-3 cell survival assay, peptide titrated with scHGF","EC50, HeLa cell migration in an in vitro wound closure assay","EC50, cell survival of BxPC3 cells during serum starvation"
B1,~20 µM,,
"IIGGCPYWMDREECI-NH2 (disulfide 5-14, also called ZAP2.3; ZAP.-3) [ZAP.03 (cyclic 15-mer synthetic peptide)]",,0.06 µM,0.4 µM

# Target: T1, scHGF β-chain (zymogen-like HGF β, …)
# Experiment: BLI scHGF β activation/Met binding assay
Molecule,fold enhancement relative to IVGG.14,fold better than IVGG.14,fold better than the previously described peptide activators,fold better than peptides previously described,fold improvement relative to IVGG.14
IVGGY[Hyp]WWMDV-NH2 (Printed as I V G G Y hyP W W M D V) [IVhyP.14 peptide],2 fold,,,,
IIGGY[Hyp]WWMDV-NH2 (Printed as I I G G Y hyP W W M D V) [IIhyP.14 peptide],,7 fold,> 400 fold,,
B1,,,,100 fold,
"IIGGCPYWMDREECI-NH2 (disulfide 5-14, also called ZAP2.3; ZAP.-3) [ZAP.03 (cyclic 15-mer synthetic peptide)]",,,,,~100 fold

# Target: T1, scHGF β-chain (zymogen-like HGF β, …)
# Experiment: phage panning against scHGF β (4 rounds) and phage ELISA
# Description: The pfam database (Finn, R. D. et al. (2010) Nucleic Acids Res 38: D211-22) was used to derive a consensus sequence for trypsin/chymotrypsin-like serine proteases and identify the N-terminal IVGG motif. Peptide libraries were synthesized as fusions to the gene VIII coat protein of M13 phage and panned against scHGF β as previously described (Tonikian, R. et al. (2007) Nat Protoc 2: 1368-86; Sidhu, S. S. et al. (2000) Methods Enzymol. 328:333-63). […] Single phage clones were picked, grown overnight and a standard phage ELISA was used to verify target specific binding. Once the IVGG.14 sequence was identified, soft randomization on gene VIII was performed on positions X₂-X₁₁.
row,Molecule,binding result
1,B2,binds
2,B3,binds
3,B4,binds
4,B5,binds
5,B6,binds
6,B7,binds
7,B8,binds
8,B9,binds
9,B10,binds
10,B11,binds
11,B12,binds
12,B13,binds
13,B14,binds
14,B15,binds
15,B16,binds
16,B17,binds
17,B18,binds
18,B19,binds
19,B20,binds
20,B21,binds
21,B22,binds
22,B23,binds
23,B24,binds
24,B25,binds
25,B26,binds
26,B27,binds

# Target: T1, scHGF β-chain (zymogen-like HGF β, …)
# Experiment: BLI (OctetRed) scHGF β activation/Met binding assay: peptide titrated into 0.5 µM scHGF β over biotinylated Met Sema/PSI on streptavidin tips; steady-state single-site fit
# Protocol: (§1) Met binding assays were carried out utilizing the OctetRed™ biolayer interferometry instrument (ForteBio, Inc.) as reported previously (Landgraf, K. E. et al. (2010) J Biol Chem 285: 40362-72). Biotinylated Met ECD (Sema/PSI-AviTag) was captured on the surface of streptavidin optical sensor tips (SA biosensors, ForteBio, Inc.), and transferred into buffer containing 0.5 μM scHGF β-chain variants in the presence of increasing concentration of indicated peptides. Association and dissociation reactions were monitored to ensure reversible binding between scHGF β and Met. Binding was quantified using the steady-state levels of surface response from the association reaction. Equilibrium constants were derived by least squares fitting of the titration data to a single-site binding equation. Errors reported are ±stdev of n=3 independent experiments.
# Based on the finding that the consensus ZAPs contain features consistent with binding and inserting into the activation pocket, several related peptides were synthesized and utilized in a previously established scHGF β activation assay to assess their affinities and ability to active Met binding (Landgraf, K. E. et al. (2010) J Biol Chem 285: 40362-72). Since scHGF β can only weakly interact with the Met Sema-PSI domain compared to the active HGF β form, biolayer interferometry was used in the activation assay to measure the ability of a peptide to directly enhance the binding affinity of scHGF β to a streptavidin sensor surface coated with biotinylated Met (Landgraf, K. E. et al. (2010) J Biol Chem 285: 40362-72). Thus, titration of an activator peptide should result in a significant increase in the surface response signal due to enhanced scHGF β binding to Met.
row,Molecule,Kd
1,IVGGY[Hyp]WWMDV-NH2 (Printed as I V G G Y hyP W W M D V) [IVhyP.14 peptide],14 µM
2,IIGGDPYWVPHPGDA-NH2 [ZAP.01 (linear 15-mer synthetic peptide)],6 µM
3,B28,59 µM
4,IIGGY[Hyp]WWMDV-NH2 (Printed as I I G G Y hyP W W M D V) [IIhyP.14 peptide],5 µM
5,IVDGYPWWMDV-NH2 [IVDG.14 peptide],85 µM
6,B1,21 µM
7,"IIGGCPYWMDREECI-NH2 (disulfide 5-14, also called ZAP2.3; ZAP.-3) [ZAP.03 (cyclic 15-mer synthetic peptide)]",0.3 µM

# Target: T1, scHGF β-chain (zymogen-like HGF β, …)
# Experiment: biolayer interferometry: biotinylated Met Sema/PSI on streptavidin tips, 0.5 µM scHGF β in solution, peptide titrated; steady-state surface response of scHGF β binding to Met
# Protocol: as §1
# Based on the finding that the consensus ZAPs contain features consistent with binding and inserting into the activation pocket, several related peptides were synthesized and utilized in a previously established scHGF β activation assay to assess their affinities and ability to active Met binding (Landgraf, K. E. et al. (2010) J Biol Chem 285: 40362-72). […]
row,Molecule,binding result
1,IVGDYPWWMDV-NH2 [IVGD.14 peptide],no binding
2,IVDDYPWWMDV-NH2 [IVDD.14 peptide],no binding (tested: about 125 µM)
